Reference: patent publication US12281147

Tests used:
human IL-21R (human) [1] = biological target: human IL-21R (human) (UniProt Q9HBE5); test: AlphaSeq yeast mating assay, unbuffered media
human IL-21R (human) [2] = biological target: human IL-21R (human) (UniProt Q9HBE5); test: AlphaSeq yeast mating assay, pH 7 media
human IL-21R (human) [3] = biological target: human IL-21R (human) (UniProt Q9HBE5); test: AlphaSeq yeast mating assay, pH 6 media
human IL-21R (human) [4] = biological target: human IL-21R (human) (UniProt Q9HBE5); test: AlphaSeq yeast mating assay, pH 5 media

Substance	Kd (human IL-21R (human) [1]) [µM]	Kd (human IL-21R (human) [2]) [µM]	Kd (human IL-21R (human) [3]) [µM]	Kd (human IL-21R (human) [4]) [µM]
IL-21_I95K (from UniProt Q9HBE4 32-152) (ligand)	260	0.24		
IL-21_N51V (from UniProt Q9HBE4 32-152) (ligand)	2.5		0.062	
IL-21_R38Q (from UniProt Q9HBE4 32-152) (ligand)	270		12	
IL-21_D66R (from UniProt Q9HBE4 32-152) (ligand)	2.7			0.025
IL-21_D47P (from UniProt Q9HBE4 32-152) (ligand)	530		27	
IL-21_L56F (from UniProt Q9HBE4 32-152) (ligand)	240	0.24		54
IL-21_Y52H (from UniProt Q9HBE4 32-152) (ligand)	69	0.11		4.4
IL-21_R38E (from UniProt Q9HBE4 32-152) (ligand)	110		8.4	
IL-21_M39P (from UniProt Q9HBE4 32-152) (ligand)	260			
IL-21_M39D (from UniProt Q9HBE4 32-152) (ligand)	800		76	
IL-21_I43L (from UniProt Q9HBE4 32-152) (ligand)	1.5		0.02	0.058
IL-21_L49E (from UniProt Q9HBE4 32-152) (ligand)	540			600
IL-21_V46T (from UniProt Q9HBE4 32-152) (ligand)	640	0.053		
IL-21_R105K (from UniProt Q9HBE4 32-152) (ligand)	250			
IL-21_L56T (from UniProt Q9HBE4 32-152) (ligand)	100		6.9	
IL-21_M39I (from UniProt Q9HBE4 32-152) (ligand)	2.5	0.035		
IL-21_V46K (from UniProt Q9HBE4 32-152) (ligand)	730	28		340
IL-21_V53P (from UniProt Q9HBE4 32-152) (ligand)	270		27	270
IL-21_V53N (from UniProt Q9HBE4 32-152) (ligand)	560	0.99		
IL-21_I96D (from UniProt Q9HBE4 32-152) (ligand)	580	35	60	
IL-21_S74H (from UniProt Q9HBE4 32-152) (ligand)	85		0.026	0.17

Substance	Kd (human IL-21R (human) [1]) [µM]	Kd (human IL-21R (human) [2]) [µM]	Kd (human IL-21R (human) [3]) [µM]	Kd (human IL-21R (human) [4]) [µM]
IL-21_V57L (from UniProt Q9HBE4 32-152) (ligand)	2.7	0.088		
IL-21_L42K (from UniProt Q9HBE4 32-152) (ligand)	250	12		
IL-21_M39K (from UniProt Q9HBE4 32-152) (ligand)	890			
IL-21_E93T (from UniProt Q9HBE4 32-152) (ligand)	2.4			0.046
IL-21_V98K (from UniProt Q9HBE4 32-152) (ligand)	150	0.25	0.094	
IL-21_I37G (from UniProt Q9HBE4 32-152) (ligand)	170			82
IL-21_S142I (from UniProt Q9HBE4 32-152) (ligand)	2.6	0.041		
IL-21_E72T (from UniProt Q9HBE4 32-152) (ligand)	2.8	0.057	0.027	
IL-21_F76T (from UniProt Q9HBE4 32-152) (ligand)	340			75
IL-21_Y52K (from UniProt Q9HBE4 32-152) (ligand)	340		2.8	
IL-21_L103E (from UniProt Q9HBE4 32-152) (ligand)	590		92	240
IL-21_D47S (from UniProt Q9HBE4 32-152) (ligand)	330		4.6	
IL-21_I95H (from UniProt Q9HBE4 32-152) (ligand)	150		2	53
IL-21_L56E (from UniProt Q9HBE4 32-152) (ligand)	110		30	
IL-21_M39E (from UniProt Q9HBE4 32-152) (ligand)	330			150
IL-21_M39R (from UniProt Q9HBE4 32-152) (ligand)	340		170	
IL-21_V46Q (from UniProt Q9HBE4 32-152) (ligand)	1000	71	260	
IL-21_Q80D (from UniProt Q9HBE4 32-152) (ligand)	660			580
IL-21_L49R (from UniProt Q9HBE4 32-152) (ligand)	160			
IL-21_I96P (from UniProt Q9HBE4 32-152) (ligand)	270	3	5.7	
IL-21_I37E (from UniProt Q9HBE4 32-152) (ligand)	110		0.55	1.5

Substance	Kd (human IL-21R (human) [1]) [µM]	Kd (human IL-21R (human) [2]) [µM]	Kd (human IL-21R (human) [3]) [µM]	Kd (human IL-21R (human) [4]) [µM]
IL-21_F76E (from UniProt Q9HBE4 32-152) (ligand)	270		6.9	100
IL-21_I148S (from UniProt Q9HBE4 32-152) (ligand)	170			
IL-21_R34V (from UniProt Q9HBE4 32-152) (ligand)		0.11	0.027	0.14
IL-21_F79R (from UniProt Q9HBE4 32-152) (ligand)		4.5	4.4	65
IL-21_P108D (from UniProt Q9HBE4 32-152) (ligand)	1.4	0.24		
IL-21_V53A (from UniProt Q9HBE4 32-152) (ligand)	1.1	0.056		
IL-21_S109M (from UniProt Q9HBE4 32-152) (ligand)	2.5	0.081	0.43	
IL-21_P108E (from UniProt Q9HBE4 32-152) (ligand)	2.8	0.55		
IL-21_R34P (from UniProt Q9HBE4 32-152) (ligand)	2.7			1.4
IL-21_W73K (from UniProt Q9HBE4 32-152) (ligand)	890	10	30	
IL-21_I45G (from UniProt Q9HBE4 32-152) (ligand)	330	1.2	5	
IL-21_A75N (from UniProt Q9HBE4 32-152) (ligand)	780		28	
IL-21_F79D (from UniProt Q9HBE4 32-152) (ligand)	170		2.7	52
IL-21_I45S (from UniProt Q9HBE4 32-152) (ligand)		0.16	0.11	15
IL-21_K106N (from UniProt Q9HBE4 32-152) (ligand)	1		0.55	10
IL-21_I96A (from UniProt Q9HBE4 32-152) (ligand)	160		11	
IL-21_Y52N (from UniProt Q9HBE4 32-152) (ligand)	110	0.24		
IL-21_V46D (from UniProt Q9HBE4 32-152) (ligand)	270		12	
IL-21_L42H (from UniProt Q9HBE4 32-152) (ligand)	550	5.4	67	
IL-21_D44P (from UniProt Q9HBE4 32-152) (ligand)	590		7.3	
IL-21_R38K (from UniProt Q9HBE4 32-152) (ligand)	250	7		
